Experimental data as given in patent publication US20080026992.

How the values were obtained:
[1] = test system: mutant p27 Y88F, phosphorylated on Tyr-89 by recombinant Abl kinase
[2] = test system: p27Kip1, recombinant, tyrosine-phosphorylated in vitro by Abl kinase (Tyr-88 phosphorylated p27)
[3] = test system: p27Kip1, recombinant, unphosphorylated

Sequence of mutant p27 Y88F, phosphorylated on Tyr-89 by recombinant Abl kinase (chain, as listed by the source Y88F): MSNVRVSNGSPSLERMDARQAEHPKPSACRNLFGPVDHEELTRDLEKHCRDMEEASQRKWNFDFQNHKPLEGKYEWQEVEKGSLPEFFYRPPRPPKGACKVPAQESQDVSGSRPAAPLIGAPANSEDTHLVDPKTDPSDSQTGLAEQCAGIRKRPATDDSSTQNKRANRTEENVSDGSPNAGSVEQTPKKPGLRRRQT

Q: With “CDK2/cyclin A complex, recombinant, purified from Sf9 insect cells” as the substance, how does the “phosphorylation of Thr-187 of p27 in CDK2 kinase complexes (Western blot with a phospho-threonine 187 specific antibody)” value [1] read?
A: The value was “a mutant phosphorylated on Tyr-89 is not a good substrate for CDK2-dependent phosphorylation (FIG. 5b)”.

Q: What about the “phosphorylation of Thr-187 of p27 in CDK2 kinase complexes (Western blot with a phospho-threonine 187 specific antibody)” value [2] of the same substance?
A: Its value is “Phosphorylation of Thr-187 was indeed strongly enhanced if Tyr-88 phosphorylated p27 was incubated in CDK2 kinase complexes (FIG. 5b)”.

Q: And the “phosphorylation of p27 by CDK2 within p27/CDK2/cyclin A complexes (32P incorporation)” value [2]?
A: The value was “the tyrosine phosphorylated protein was a good substrate for CDK2 phosphorylation (FIG. 5a)”.

Q: And the “phosphorylation of p27 by CDK2 within p27/CDK2/cyclin A complexes (32P incorporation)” value [3]?
A: The value was “As expected, p27 was poorly phosphorylated due to the absence of free kinase”.
